The source of these data is patent US20140170149A1 (Genmab, published 2014).

For experiment [1], the target named is T1, human epidermal growth factor receptor 2 (HER2) (human, UniProt P04626 23-1255).
T1 construct: whole, on cells; One entry for endogenous HER2 on tumor cell lines and for the fully human construct hu-HER2 on CHO-S cells; also called ErbB-2; hu-HER2
Put plainly: flow cytometry on AU565 cells (high HER2), PE-goat anti-human IgG, MFI; EC50 by non-linear regression (Example 12). (Flow cytometry measures light scatter and fluorescence of single cells or particles in a stream.)
Experimental: (§1) Binding of HER2 antibodies was detected using a Phycoerythrin (PE)-conjugated goat-anti-human IgG antibody (Jackson). […] EC₅₀ values were determined by means of non-linear regression (sigmoidal dose-response with variable slope) using GraphPad Prism V4.03 software (GraphPad Software, San Diego, Calif., USA).

For experiment [2], the target named is T1, human epidermal growth factor receptor …. Put plainly: flow cytometry on CHO-S cells transiently transfected with hu-HER2, PE-goat anti-human IgG, MFI (Example 24).
Experiment [3] shares this target. Put plainly: flow cytometry on A431 cells (low HER2), PE-goat anti-human IgG, MFI; EC50 by non-linear regression (Example 12).
Experimental: as §1
Experiment [4] has the same target. Put plainly: cell-based or functional assay.

B1: HER2 HuMab 153 (antibody, V domains shown)
VH: QVQLVESGGGVVQPGRSLRLSCAASGFTFSDYVIHWVRQAPGKGLEWVTVISYDGSNKYYADSVKGRFTISRDNSKNTLYLQMNSLSAEDTAMYYCARGGITGTTGVFDYWGQGTLVTVSS
VL: DIQMTQSPSSLSASVGDRVTITCRASQGISSWLAWYQQKPEKAPKSLIYDASSLQSGVPSRFSGSGYGTDFSLTISSLQPEDFAIYYCQQYKSYPITFGQGTRLEIK
notes: also called PC1014-153; TH1014-153
In the case of B1, the EC50 amounted to 0.626 µg/mL in experiment [1] and 0.244 µg/mL in experiment [3]. The “EC50 (read off the curve)” value in experiment [2] is approximately 0.04 µg/mL. Moreover, in experiment [4], the “EC50, fab-CypHer5E internalization assay, AU565 cells” value was approximately 0.0149 µg/mL. Also, the “Maximal MFI, fab-CypHer5E internalization assay, AU565 cells” value in experiment [4] came out at 87500 MFI.

By EC50 is commonly meant the concentration needed to bring the measured effect to its halfway point. High values mean a need for much substance, low ones an effect from little substance. For orientation: EC50 (read off the curve) means the concentration that produces a half-maximal response.
